According to US20260109774A1 (JUNO THERAPEUTICS, published 2026):

T1: human B-cell maturation antigen (BCMA) on cells (human, UniProt Q02223 1-184)
T1 construct: Recombinant on HEK293 or K562 cells, or endogenous on cell lines (H929, RPMI 8226, OPM2, MM1S, Daudi); also called hBCMA; huBCMA
T1 chain: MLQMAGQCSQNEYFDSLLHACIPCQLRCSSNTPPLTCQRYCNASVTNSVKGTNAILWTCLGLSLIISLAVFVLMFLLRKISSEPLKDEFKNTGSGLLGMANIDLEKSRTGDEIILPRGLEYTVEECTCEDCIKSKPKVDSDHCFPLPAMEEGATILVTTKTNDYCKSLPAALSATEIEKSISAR


Target: T1, human B-cell maturation antigen (BCMA) …
Test: flow cytometry on BCMA-expressing HEK293 cells vs control cells, crude lysate or bacterial supernatant; clone listed in Table E2
Procedure: Specific binding of resulting scFv clones to BCMA-expressing HEK293 cells, as compared to control cells not expressing BCMA, was assessed by flow cytometry either with in vitro translated crude cell lysate or with bacterially-produced supernatant.

Binder	binding result
BCMA-35 scFv (scFv) scFv: EVQLVQSGGGLVKPGGSLRLSCAASGFTFSDYYMSWIRQAPGKGLEWVSYISSSGSTIYYADSVKGRFTISRDNAKNSLYLQMNSLRAEDTAVYYCARVDGDYDDYWGQGTLVTVSSGGGGSGGGGSGGGGSNFMLTQPPSVSVAPGQTARITCGANNIGSKSVHWYQQKPGQAPMLVVYDDDDRPSGIPERFSGSNSGNTATLTISGVEAGDEADYFCHLWDRSRDHYVFGTGTKLDIK	binds
BCMA-34 scFv (scFv) scFv: TGQLVQSGGGLVQPGRSLRLSCAASGFTFDDYAMHWVRQAPGKGLEWVSGISWNSGSIGYADSVKGRFTISRDNAKNSLYLQMNSLRAEDTAVYYCARDLGPDYDPDAFDIWGQGTMVTVSSGGGGSGGGGSGGGGSEIVMTQSPATLSLSPGDRATLSCRASQSISNYLAWYQQKPGQAPRLLIYDASNRATGIPARFSGSGSGTDFTLTISSLEPEDFAVYYCQQRSNWPPYTFGQGTKLDIK	binds
BCMA-24 scFv (scFv) scFv: EVQLVQSGGGLVKPGGSLRLSCAASGFTFSDYYMSWIRQAPGKGLEWVSGISWNSGSIGYADSVKGRFTISRDNAKNSLYLQMNSLRAEDTAVYYCARDLGPPYGDDAFDIWGQGTMVTVSSGGGGSGGGGSGGGGSDIVMTQSPDSLAVSLGERATINCKSSQSVLYSSNNKNYLAWYQQKPGQPPKLLIYWGSTRESGVPDRFSGSGSGTDFTLTISSLQAEDVAIYHCQQYISLPWTFGQGTKVEIK	binds
BCMA-36 scFv (scFv) scFv: QVQLVQSGGGLVKPGGSLRLSCAASGFTFSDYYMSWIRQAPGKGLEWVSYISSSGSTIYYADSVKGRFTISRDNAKNSLYLQMNSLRAEDTAVYYCARVDGDYVDDYWGQGTLVTVSSGGGGSGGGGSGGGGSQSVLTQEPSLTVSPGETVTLTCGSSTGPVTSAHSPSWFQKKPGQAPTTLIYETTNRHSWTPARFSGSLLGGKAALTLSGAQPEDEADYYCLLSSGDARMVFGGGTKLTVL	binds
BCMA-37 scFv (scFv) scFv: EVQLVQSGGGLVKPGGSLRLSCAASGFTFSDYYMSWIRQAPGKGLEWVSYISSSGSTIYYADSVKGRFTISRDNAKSSLYLQMNSLRAEDTAVYYCARVDGDYVDDYWGQGTLVTVSSGGGGSGGGGSGGGGSQLVLTQEPSLTVSPGGTVTLTCGSSTGAVTNGHSPYWFQQKPGQAPRTLIYDTTNRHSWTPARFSGSLLGGKAALTLSGAQPEDEAEYYCSLSHAGDRVFFGGGTKLTVL	binds
BCMA-32 scFv (scFv) scFv: QVQLVESGGGLVKPGGSLRLSCAASGFTFSDYYMSWIRQAPGKGLEWVSYISSSGSTIYYADSVKGRFTISRDNAKNSLYLQMNSLRAEDTAVYYCAKVDGPPSFDIWGQGTMVTVSSGGGGSGGGGSGGGGSQTVVTQPPSVSVAPGQTARITCGGNNIGSKGVHWYRQRPGQAPEVVIYDDSDRPSGVPDRFSGSNSGNTATLTVRGVEAGDEADYYCQVWDSSSDHWVFGGGTKLTVL	binds

Continued, values first:

binding result	Binder
binds	BCMA-38 scFv (scFv) scFv: QVQLVQSGGGLVKPGGSLRLSCAASGFTFSDYYMSWIRQAPGKGLEWVSYISSSGSTIYYADSVKGRFTISRDNAKNSLYLQMNSLRAEDTAVYYCARVDGDYVDDYWGQGTLVTVSSGGGGSGGGGSGGGGSQAVLTQEPSLTVSPGGTVTLTCGSSTGAVTNGHSPYWFQQKPGQAPRTLIYDTNNRHSWTPARFSGSLLGGKAALTLSGAQPEDEADYFCLLSYSDARLAFGGGTKLTVL
binds	BCMA-41 scFv (scFv) scFv: QVQLVQSGGGLVKPGGSLRLSCAASGFTFSDYYMSWIRQAPGKGLEWVSYISSSGNTIYYADSVKGRFTISRDNAKNSLYLQMNSLRAEDTAVYYCAKVDGDYVDDYWGQGTLVTVSSGGGGSGGGGSGGGGSQPVLTQPPSVSGTPGQRVTIPCSGSSSNIGGNSVDWFQEVPGTAPKLLIYANDRRPSGVPDRFSGTKSGTSASLAIRGLQSDDDAHYYCESWDDALNGHVFGGGTKLTVL
